Molecular target: keyhole limpet haemocyanin
Assay: ELISA, KLH coated, 100 nM antibody

Row | Substance | absorbance ratio to PBS blank
1 | Ofatumumab (antibody) | 1.15
2 | Adalimumab (antibody) | 1.03

— US20240409635A1
